Experimental data published in US20110212091.

Key:
[1] = tested on: FGFR4 G388, V5-His tagged (FGFR4G388-V5-His)
[2] = tested on: FGFR4 R388, V5-His tagged (FGFR4R388-V5-His)

For HA-tagged MT1-MMP, the MT1-MMP tyrosine phosphorylation [1] was “repeatedly detected” and the MT1-MMP tyrosine phosphorylation [2] was “repeatedly detected”.
